The DeepSol protein solubility set

Assay: soluble on expression in E. coli; label from the status in PepcDB or PDB records
For “MKIALINENSQAAKNGIIYDALTTVTDKHGYQVFNYGMYGTEGESQLTYVQNGLLASILLTTKAADFVVTGCGTGVGAMLALNSFPGVTCGFASEPTEAYLFSQINGGNALSIPFAKGFGWGAELNLTLIFERLFAEPMGGGYPKERAIPEQRNARILSDLKKITYRDLLAIVKDIDQDFLKETISGAHFQEYFFANAEPSELVTYLKSVLEQ”, the “soluble on expression in E. coli” value was “not soluble”.
In the case of “MNEFMEPLDRISAETLGHYERNAEAFFEGTRDHDVSQNIAALLSHIRTEPPFTVLDFGCGPGRDLKAFTELGHRAVGLDGAFRFVEMARDYSGCEVWHQDFLKLDLPEEHFDGIFANATLFHVPSRELPRVLGELRAALKPEGVLFASNPRGRNEEGWNRGRYGVYHDLDTWRRFLTSAGFLELEHYYRPAGLPRDQQPWLASVWRRTLEHHHHHH”, the “soluble on expression in E. coli” value is reported as “soluble”.
For “MRSRRVDVMDVMNRLILAMDLMNRDDALRVTGEVREYIDTVKIGYPLVLSEGMDIIAEFRKRFGCRIIADFKVADIPETNEKICRATFKAGADAIIVHGFRGADSVRACLNVAEEMGREVFLLTEMSHPGAEMFIQGAADEIARMGVDLGVKNYVGPSTRPERLSRLREIIGQDSFLISPGVGAQGGDPGETLRFADAIIVGRSIYLADNPAAAAAGIIESIKDLLNP”, the “soluble on expression in E. coli” value was “not soluble”.
With “MGSDKIHHHHHHMSQRENPQNSSQDVADLLGGAFAGHTMQRLRTPDGKYRYSYVSSGVQASFGLDPEALMQLQDVDHSWLHPADRSLFIAALEQSAAALTRLDEEVRVSLDDGTFKWVRSIGNPRRMRDGTVIWDGVALDVTDRHEASEALERTLTQVRQNETSEGRFSYIAASDVLDRLSSLRAAVEQLDLSVPTAAHVHAVFQKFERGLFAARDLLDDTALDETRPTDHEPHKDISATLTPRQQDILGHVSRGATNRDIARAMDISEGTVKLHISAILKRTGAQNRTEAALAWTSSNGTPRR” the “soluble on expression in E. coli” value was “not soluble”.
With “MGSDKIHHHHHHMTQELTFSIKSLRFDEDYRPAANTRNTTNFANLARGQRRQENLRNTLAMINNRFNDLAHWDNPKRDRYAVELDIISVEMKIGERDTGDAFPLIEILQPSILDQTTGARIDGIAGNNFSSYVRDYDFSVLLPAHNQDTSSFSLPEGFGSLHGTLFKQFVNSDTYTARFAKPPVICISVSSSKVYHRTGNRHPILGVEYRQDAFSLTDQYFEKMGLQVRYFMPPNSVAPLAFYFLGDLLNDYTNLELIGTISTMETFQKIYRPEIYNANSAAGTIYQPSLKHQDYSATQIVYDRQERSQLAVTQGKFTQEHFIKPYGDILEQWASSHAFSSTPTQDIAHHE” the “soluble on expression in E. coli” value was “not soluble”.
With “MGSDKIHHHHHHMRDLNRLDDLLQGYEFMKKINDNWEIIENGLNLSDYEIEHLRKRITNLVIASGGNSSNEVVDLRVSKLQNKIFELAKDRLDSDLDSLADSLKNMMTRITSIELTNEQVLYMLNRLYGLDAGSIEVYVDSVSGDDTAGTGEKNKPFKTINKATMNFPRVFNSNTLRLWINPGRYDEDVIIPPLSGVTLYILSSNYETVDPAAGPTTCQIRSISVSDTSGYIYIAGIEQTNTAGTTKNYFIKAIRCGFVRITKCRMAFNTKAIDPFTAVFIDACSADVNGCYFASQNVDVRGYNTARVEVQNTTHGAKSAIGLYPQSADIFNLNSGTWEADTPTKLSGGGVVRT” the “soluble on expression in E. coli” value was “not soluble”.
For “MPTNVTAEYLAAEEEYRNAKTIPEKIRALEKMYALVPKHKGTEKLRLQIKRRLAELRRELEKQRQQRKGGGYSLAVKKEGAAQIVLVGLPNVGKSELLRALTGVDVESADYPFTTTEPVPAMMNYKDVQIQLVEVPGLLEGAALGKGMGPQLLAVIRNADAIAIVIDLSEDPIKQMEILLREFERAGIKVNKRRPRVEIRKTPSGGIVINGAENIKGDLSEVMRMLREEKIHSAEITVKEPVTLEEFADALDDSLVWKKAIIIANKGDSPGSKENYHKLINKYGEKFKIVPVSAKKRINLEAVKEAIYDVAEIIRVFTKSPGEEPAYPPIALKRGATVMDVAERIHKDLVKNFRYARVWGKSVKFPGQRVGPDHVLEDGDIVEIHAK”, the “soluble on expression in E. coli” value was “soluble”.
In the case of “MGSDKIHHHHHHMTQPFIPEQEYKRTDLHKQYGGNAQSGISNCANYPYIFIFSGVTGKQHGYKDGWENPNVFEYTGEGQMGDMSFTRGNLALRDHIDNGKQVFLFQYQRSGIVKYICELEFYDTDYFPTHDSSKQLRVGIRFFLKRKGAILPSVKELNQSTDFLAAESIPFYGIDSIKETSRKGEVNLRVGQGAYRKSIIHHWQYKCAVTGFDKLNLLNASHIHPWKDATDKERLDVNNGILLSPTYDALFDKHLISFENDGKIILSDTIHFSAYQKIGVTGKEKIKELNSNSILYIEKHRHLLLKY”, the “soluble on expression in E. coli” value is reported as “not soluble”.
For “MGSDKIHHHHHHMKIMVITKNILSETAFQNRLQHLDHQVFCTTCLIGEIKESHLFYRKFDAIILSETIPRKEQYLYLKELARVKTPLFLRSEDIPTSEELSISYQYGILNWLRLDATLDTLRENLLLAELNKPIQREDEKLDVEGIKLTAAERALLAVLYSTPKEHLPMERLCKLIYDTEETANNRKKMTKQLTKLNKKIQVGGFKKQGIQNTRYKGYKLHPQLLPYIGELFT”, the “soluble on expression in E. coli” value was “not soluble”.
With “MGSDKIHHHHHHMTWKSVNFDWNHIRAFLVTAEEGTLSAAAKALGLTQPTLSRQVSALETELCITLFERVGQRLVLTSSGLKLLEHARGMGDAALEFSLAVTGQSQKIEGSVIVSAGELTAAYMLPKIISKLRREEPGIDIEVVVTNEASDLKRREADIAIRSFHPTQNDLIAKKIGEEVIWLYGTPEYLDQLPTIPSFSELKDIQIIGFDRSNSLTDVLNKQGWQLSKKNFSLITSFQLLQLALCKEGQGVIFYPEQMGDQEPNLVRAYEHLGPVMKLPVWLVCHQELRTSLRVRRVFDFIATELSDNFY” the “soluble on expression in E. coli” value was “not soluble”.
For “MLNDGEVTPSRHEILSMVKKHSKSLGKTSLDEQDASDVEMDSNFWHGVFDVYFVRCMESRRRQDDDLLFFVRKLSCKSYGLTENEDAPAPYFVRRWAPKLDELLGESLAEVDWRKSFYLNMIAHTSFTVTVAICSNEALKTYQGSKDTKLSPIYKVVKTVYASPSRVNFHLDSKKEVETTPAYPEICFAVDDFDSTFDAVVLTDKDHCYCVLLNSHDGAAFPSATVKDSSDSNTNADPRTVKDPKVTLFSGFVSYQMVREAYEGGRNRFGSLLSLGHITGKADRLYMRGPGGRGEVEVAVSGVVDQSQVVLGPVSPMSSKKSIDLGSIFRKAASVASVAAKHAIAAATASYDEDEMFPLKCCLMSISLPWDTIAHDLLFKATPPVNME”, the “soluble on expression in E. coli” value was “soluble”.
With “MGHHHHHHGGHMSLQDFKKLPTVLTAEELIDKIFRRAARVEGRNPKEKALNKLATISNVSRDYFGKIIGAHPSYENLPDFYREMVDVVVGIRQLKKSLVALKWADGMIQKVVSRAVREVKGGKNPSAVVKSAYGRVASIIEQIDDELRFLNDAKNRMREIPILQDLPTIVVAGYPNVGKSSLVARISTVKPEVASYPFTTKKINLGFAEFAGKRVQIIDTPGLLDRPLSKRNRIERRAVLALKHLADIILFVIDPTETCGYSLEKQLSLLEEIKGYFAKPTVEVYSKADMHDRRDRQAYSAVTGEGIDELIKEIEKMVKIHSQTSTVIAPSGQTSTQEQHSEGGS” the “soluble on expression in E. coli” value was “soluble”.
In the case of “MNITPLTSAAGKGSSAQGTDKISIPNSTRMINAASIKWLNKVRSAISDHIRTSIEKGKLFELASLGSNMFGVPALSARPSTLQPVLAFEADPNHDLNLVRVYMQDSAGKLTPWDPTPNAVTTTSNPSEPDAQSDTASSSLPRRPPAGSVLSLLGIALDHAQRHSPRADRSAKGRPGREERNGARFNAKQTKPTEAEAYGDHQTPNPDLHRQKETAQRVAESINSMREQQNGMQRAEGLLRAKEALQAREAARKQLLDVLEAIQAGREDSTDKKISATEKNATGINYQ”, the “soluble on expression in E. coli” value is reported as “not soluble”.
In the case of “MENPDSAFLLFRNAPRLPLATMHTPLCGDSHQPDFAFRKPARDALLRPWNGRNHRCGLQDGREICQGQLPAHQKSYWSDCAALPRLFRAYGGAVVRGFLIVGNKAFTQPFSLNDLPGAGRMDVLCRCTSQALFISHGIRRDVEVYLLLLGPPSPPKSILIKGDEVRRMSPDERNVAGHIKKALAVECGKSWKKVHSGVYVSRKGLEELIEELSEKYSIIYLKEDGVDISNAQLPPNPLFVIGDHEGLTEEQEKVVERYAALKLSLSPLSLLAEQCVVIAHHHLDRLQF”, the “soluble on expression in E. coli” value is reported as “not soluble”.
In the case of “GMADKTGTPHPLTEPGVWIERIGGRVFPPHLPALFLDRDGTINVDTDYPSDPAEIVLRPQMLPAIATANRAGIPVVVVTNQSGIARGYFGWSAFAAVNGRVLELLREEGVFVDMVLACAYHEAGVGPLAIPDHPMRKPNPGMLVEAGKRLALDLQRSLIVGDKLADMQAGKRAGLAQGWLVDGEAAVQPGFAIRPLRDSSELGDLLAAIETLGRDNRS”, the “soluble on expression in E. coli” value is reported as “soluble”.
